{"source": "paper PMC9969229", "key": {"[1]": {"target": "neuraminidase-treated glycosylated human PSA (human) (UniProt P07288)", "test": "BLI; […] (15 μg mL^-1) […], in buffer"}, "[2]": {"target": "glycosylated prostate specific antigen (human) (UniProt P07288)", "test": "BLI; […] (0.4 μg mL^-1) […]"}}, "data": [{"substance": "Sambucus nigra lectin (natural protein)", "values": [{"measurement": "reduction in signal against fresh glycosylated PSA", "setting": "[1]", "result": 50, "unit": "%"}, {"measurement": "maximum signal to noise (PSA against no PSA)", "setting": "[2]", "result": 12.8}, {"measurement": "signal to noise (PSA against no PSA)", "setting": "[2]", "result": 1.5}]}]}
